In patent US20230357429A1 (JANUX THERAPEUTICS, published 2023):
Read-outs that look alike come from different tables or passages of the source. One block for each binder: values may come before it. Where no end group is shown, it is not given here.

What was measured:
[1] = molecular target: T1, TBD-1 wt; assay: competition ELISA: peptide titrated and pre-incubated with a constant concentration of TBD-1, then added to plate-bound biotinylated TROP2; blocked ligand TROP2 (2.m7)
T1 construct: Fab; the heavy chain entry is VH-CH1; also called wild-type anti-TROP2 Fab (hRS7); TROP2 Fab

[2] = molecular target: T2, TCE-1 (anti-CD3 scFv wt; anti-TROP2 Fab wt); assay: competition ELISA: peptide titrated and pre-incubated with a constant concentration of TCE-1, binding of TCE-1 to plate-bound biotinylated CD3 detected
T2 construct: anti-CD3 scFv fused to the N-terminus of the anti-TROP2 Fab heavy chain; also called TCE-1 (wt)

[3] = molecular target: T3, TCE-14 (anti-CD3 scFv F104A; anti-TROP2 wt); assay: competition ELISA, TCE on captured CD3
T3 construct: scFv on the Fab heavy chain; also called TCE-14 (F104A)

[4] = molecular target: T4, TCE-11 (anti-CD3 scFv H101A; anti-TROP2 wt); assay: competition ELISA, TCE on captured CD3
T4 construct: scFv on the Fab heavy chain; also called TCE-11 (H101A)

[5] = molecular target: T5, TCE-20 (anti-CD3 scFv S110A; anti-TROP2 wt); assay: competition ELISA, TCE on captured CD3
T5 construct: scFv on the Fab heavy chain; also called TCE-20 (S110A)

[6] = molecular target: T6, TCE-33 (anti-CD3 scFv F240A; anti-TROP2 wt); assay: competition ELISA, TCE on captured CD3
T6 construct: scFv on the Fab heavy chain; also called TCE-33 (F240A)

[7] = molecular target: T7, TCE-31 (anti-CD3 scFv W238A; anti-TROP2 wt); assay: competition ELISA, TCE on captured CD3
T7 construct: scFv on the Fab heavy chain; also called TCE-31 (W238A)

[8] = molecular target: T8, TCE-26 (anti-CD3 scFv W233A; anti-TROP2 HC wt); assay: competition ELISA, TCE on captured CD3
T8 construct: scFv on the Fab heavy chain; also called TCE-26 (W233A)

[9] = molecular target: T9, Human TROP2 ECD (31-274 AA), biotinylated (human, UniProt P09758 31-274, biotinylated (site not stated)); assay: ELISA on immobilized TROP2
T9 construct: also called tumor-associated calcium signal transducer 2; Human TROP2-biotin
T9 sequence: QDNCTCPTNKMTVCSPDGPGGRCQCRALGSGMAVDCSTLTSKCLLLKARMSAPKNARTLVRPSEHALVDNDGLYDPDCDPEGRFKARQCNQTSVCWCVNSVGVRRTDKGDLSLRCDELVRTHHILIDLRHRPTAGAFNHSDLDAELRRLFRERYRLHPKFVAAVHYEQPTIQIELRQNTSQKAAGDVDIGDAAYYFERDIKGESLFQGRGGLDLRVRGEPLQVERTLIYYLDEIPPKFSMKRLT

[10] = molecular target: T9, Human TROP2 ECD (31-274 AA), …; assay: ELISA on immobilized TROP2; remark: listed apart in the source
[11] = molecular target: T10, TCE-13 (anti-CD3 scFv N103A; anti-TROP2 wt); assay: competition ELISA, TCE on captured CD3
T10 construct: scFv on the Fab heavy chain; also called TCE-13 (N103A)

[12] = molecular target: T11, TCE-10 (anti-CD3 scFv R100A; anti-TROP2 wt); assay: competition ELISA, TCE on captured CD3
T11 construct: scFv on the Fab heavy chain; also called TCE-10 (R100A)

[13] = molecular target: T12, TCE-22 (anti-CD3 scFv W112A; anti-TROP2 wt); assay: competition ELISA, TCE on captured CD3
T12 construct: scFv on the Fab heavy chain; also called TCE-22 (W112A)

[14] = molecular target: T13, Peptide-77 (cysteine pairing not given here; also: biotinylated, site not given here); assay: ELISA, TCE on captured biotin-peptide
T13 construct: mask peptide for the CD3 scFv
T13 peptide: YLCGPDTDETLACY

[15] = molecular target: T14, Peptide-76 (cysteine pairing not given here; also: biotinylated, site not given here); assay: ELISA, TCE on captured biotin-peptide
T14 construct: mask peptide for the CD3 scFv
T14 peptide: YLCGPDADETLACY

[16] = molecular target: T15, Peptide-70 (cysteine pairing not given here; also: biotinylated, site not given here); assay: ELISA, TCE on captured biotin-peptide
T15 construct: mask peptide for the CD3 scFv
T15 peptide: YLCGPDGDETLACY

binding result [1]: binds
Binder: VDFCTIYKWPVCEG [Peptide-22]

IC50 (read off the curve) [2]: ~2 µM | IC50 [3]: 6.46 µM | IC50 [4]: 85 µM | IC50 [5]: 6.54 µM | IC50 [6]: 0.62 µM | IC50 [7]: 17.7 µM | IC50 [8]: 2.64 µM
Binder: QGCGTIADPEPHCW (cysteine pairing not given here; also: biotinylated, site not given here, mask peptide for the CD3 scFv) [Peptide-65]

EC50 [9]: 0.0245 µM | EC50 [10]: 0.00915 µM
B1: PC-5 (bispecific antibody)
light: GGIDFCMLYNWPICAGGGGGSGGLSGRSDAGSPLGLAGSGGSDIQLTQSPSSLSASVGDRVSITCKASQDVSIAVAWYQQKPGKAPKLLIYSASYRYTGVPDRFSGSGSGTDFTLTISSLQPEDFAVYYCQQHYITPLTFGAGTKVEIKRTVAAPSVFIFPPSDEQLKSGTASVVCLLNNFYPREAKVQWKVDNALQSGNSQESVTEQDSKDSTYSLSSTLTLSKADYEKHKVYACEVTHQGLSSPVTKSFNRGEC
heavy: not shown
notes: anti-TROP2 wt

binding result [2]: binds | IC50 [11]: 5.08 µM | IC50 [12]: 1.35 µM | IC50 [4]: 3.72 µM | IC50 [5]: 11.8 µM | IC50 [6]: 4.83 µM | IC50 [7]: 51 µM | IC50 [13]: 13.8 µM | IC50 [8]: 75.4 µM
Binder: VDCGPDGDESILCY (cysteine pairing not given here; also: biotinylated, site not given here, mask peptide for the CD3 scFv) [Peptide-71]

binding result [2]: binds | IC50 [12]: 88.9 µM | IC50 [3]: 1.08 µM | IC50 [5]: 0.4 µM | IC50 [6]: 7.35 µM | IC50 [7]: 9.47 µM | IC50 [8]: 43 µM
Binder: DWCWYSPDNDGLCD (cysteine pairing not given here; also: biotinylated, site not given here, mask peptide for the CD3 scFv) [Peptide-68]

binding result [1]: binds
Binder: PDFCQLYNWPVCAG [Peptide-19]

binding result [1]: binds
Binder: IDFCSLYQWPVCGT [Peptide-21]

IC50 (read off the curve) [1]: ~3 µM
Binder: IDFCLLYDWPVCAS [Peptide-16]

binding result [2]: binds | IC50 [11]: 50.5 µM | IC50 [3]: 11.8 µM | IC50 [5]: 4.24 µM | IC50 [6]: 0.81 µM | IC50 [7]: 6.57 µM | IC50 [13]: 56.8 µM | IC50 [8]: 2.02 µM
Binder: SECLVDLQSDPCYW (cysteine pairing not given here; also: biotinylated, site not given here, mask peptide for the CD3 scFv) [Peptide-69]

binding result [1]: binds
Binder: VDFCYQYGWPICSR [Peptide-23]

EC50 [14]: 0.00921 µM | EC50 [15]: 0.00144 µM | EC50 [16]: 0.00034 µM
B2: TCE-37 (anti-CD3 scFv F104A; anti-TROP2 F108A) (bispecific antibody)
light: DIQLTQSPSSLSASVGDRVSITCKASQDVSIAVAWYQQKPGKAPKLLIYSASYRYTGVPDRFSGSGSGTDFTLTISSLQPEDFAVYYCQQHYITPLTFGAGTKVEIKRTVAAPSVFIFPPSDEQLKSGTASVVCLLNNFYPREAKVQWKVDNALQSGNSQESVTEQDSKDSTYSLSSTLTLSKADYEKHKVYACEVTHQGLSSPVTKSFNRGEC
heavy: not shown
notes: scFv on the Fab heavy chain

EC50 [14]: 0.0632 µM | EC50 [15]: 0.00456 µM | EC50 [16]: 0.0004 µM
B3: TCE-7 (anti-CD3 scFv wt; anti-TROP2 F108A) (bispecific antibody)
light: DIQLTQSPSSLSASVGDRVSITCKASQDVSIAVAWYQQKPGKAPKLLIYSASYRYTGVPDRFSGSGSGTDFTLTISSLQPEDFAVYYCQQHYITPLTFGAGTKVEIKRTVAAPSVFIFPPSDEQLKSGTASVVCLLNNFYPREAKVQWKVDNALQSGNSQESVTEQDSKDSTYSLSSTLTLSKADYEKHKVYACEVTHQGLSSPVTKSFNRGEC
heavy: not shown
notes: scFv on the Fab heavy chain
